± gives the standard deviation of the averaged measurements.
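Also: ATP exposure 15 min at 22 °C before imaging.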

The test system of this data set is ATP. The data set can be described thus: switch fluorescence ratio, 500 uM ATP over buffer (Cy3 cluster intensity, sum of 5 cycles each) (fold (ratio)); higher = stronger signal-on switching upon ATP binding; sequences stand for … in TCGTCGGCAGCGTCAGATGTGTATAAGAGACAGTTTTTTTTTTTTTTTTTTTTTTTTT…TC. The note with it: aptamer strand: ATP DNA aptamer (quencher-CACCTGGGGGAGTATTGCGGAGGAAGG + anchor), 100 nM annealed; ATP concentration: 500 uM. In a few lines: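 For every switch-domain sequence, the fluorescence ratio is the mean of per-cluster values, each being summed target-cycle Cy3 intensity over summed buffer-cycle Cy3 intensity. Clusters outside 100-1000 RFU were excluded. On a modified Illumina MiSeq flow-cell, the Cy3-labelled switching-strand clusters were annealed to 100 nM quencher-labelled ATP aptamer, imaged in selection buffer and then after 15 min with 500 uM ATP at 22 °C. Five such cycles were run, with NaOH stripping and re-annealing between them.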
TTGAAATCGA: the switch fluorescence ratio was 1.01 ± 0.03.
Consider TAATAGGTTC, for which the switch fluorescence ratio was 0.972 ± 0.024.
For the sequence TTATTGGGGG, the switch fluorescence ratio stood at 0.982 ± 0.037.
Consider AATCCATGCG, for which the switch fluorescence ratio was determined as 1.004 ± 0.0076.
As for GGCGTAATCT, the switch fluorescence ratio stood at 1.04 ± 0.037.
For AGTATTTTGG, the switch fluorescence ratio was found to be 1.01 ± 0.018.
Consider CGCGGATTGG, for which the switch fluorescence ratio was 0.9903 ± 0.0094.
In the case of TGCTGAAGGG it was 1.04 ± 0.03; in that of GAGCGAGAAG, 1.01 ± 0.028.
With AATGGGGAAA, the switch fluorescence ratio amounted to 1 ± 0.028.
Then GTGGGATGGG, with 0.973 ± 0.019; and TTTTTCATCA, with 0.982 ± 0.036.
Regarding ATGAGCTGAG, the switch fluorescence ratio was determined as 1.01 ± 0.035.
In the case of CTCGCTCGTT, the switch fluorescence ratio amounted to 1.03 ± 0.018.
Take GTTGGTTAGC: the switch fluorescence ratio turned out to be 1.02 ± 0.035.
Regarding CCATATCGAC, the switch fluorescence ratio came to 1.05 ± 0.05.
Regarding TCGGCTTGGG, the switch fluorescence ratio is 0.987 ± 0.02.
GGTGTAGAAC: the switch fluorescence ratio amounted to 1 ± 0.049.
Take AGGATAAACT: the switch fluorescence ratio was 1 ± 0.013.
In the case of CAGAGAAAGT it was 0.973 ± 0.038; in that of CGCGGCAAGG, 1.32 ± 0.31.
With ACAGCGGGA, the switch fluorescence ratio worked out at 1.0254 ± 4.6e-06.
Consider GGCCGTTTGG, for which the switch fluorescence ratio came out at 0.981 ± 0.032.
Turning to GTTGTAAAGG, the switch fluorescence ratio amounted to 1.02 ± 0.026.
Then TTTTAAAAAG, with 1 ± 0.012; and GCTATTGGTG, with 1.06 ± 0.019; and GGTTGCACAG, with 1.005 ± 0.0043.
CGGAGAGGGT: the switch fluorescence ratio is 1 ± 0.029.
Take TTCAAGGGCA: the switch fluorescence ratio came out at 1.01 ± 0.027.
Consider TGTTTATTTT, for which the switch fluorescence ratio is 0.982 ± 0.025.
GAGGTAGTCA: the switch fluorescence ratio is 1.0112 ± 0.00047.
Then AATGGTGTAC, with 1.03 ± 0.011; and TGGGAGTATA, with 1 ± 0.032.
Take CGGTTGATCT: the switch fluorescence ratio is 1.09 ± 0.13.
For the sequence TTGGGGGGCC, the switch fluorescence ratio came out at 1.01 ± 0.031.
In the case of CGACATTGCA it was 1.09 ± 0.022; in that of AGGGCGGAGT, 0.994 ± 0.022; in that of GTATTAGCAG, 1.03 ± 0.026.
As to CCTCGTTAGC, the switch fluorescence ratio was found to be 2.63 ± 0.13.
As to CTTGGTCCCG, the switch fluorescence ratio was determined as 1.01 ± 0.011.
Regarding TGCATTTAGG, the switch fluorescence ratio was 1.02 ± 0.032.
In the case of GGAGGTTTAA it was 1.01 ± 0.024; in that of CCAAAAGGCA, 1.0416 ± 0.00044.
In the case of TTTCATCCCC it was 1.07 ± 0.034.
Take GGGACAGCCT: the switch fluorescence ratio was 1.01 ± 0.017.
For the sequence CGTGTGTGGT, the switch fluorescence ratio was 0.994 ± 0.024.
In the case of CAATTCAGAT, the switch fluorescence ratio turned out to be 0.952 ± 0.028.
Turning to TTTGCCGGCG, the switch fluorescence ratio was determined as 0.97337 ± 0.00069.
Turning to GCAGGTGTGC, the switch fluorescence ratio is 1.13 ± 0.082.
In the case of TAAAATGCCG, the switch fluorescence ratio is 1.01 ± 0.061.
GTGCCCAACG: the switch fluorescence ratio turned out to be 1.03 ± 0.03.
As to CAGTTGTTGC, the switch fluorescence ratio amounted to 0.984 ± 0.023.
For AATCAAATTA, the switch fluorescence ratio came to 0.985 ± 0.025.
In the case of GTATTAAGGG, the switch fluorescence ratio was 1.02 ± 0.035.
As to CCGGTTGAGA, the switch fluorescence ratio turned out to be 1 ± 0.016.
As for TGCACGTTTT, the switch fluorescence ratio is 1.09 ± 0.07.
On to TCTGTTGTG, for which the switch fluorescence ratio turned out to be 1.03 ± 0.029.
Then GCGGGAACGG, with 0.992 ± 0.017; and TACAGATTGG, with 0.979 ± 0.025; and CGATGGGATA, with 1.03 ± 0.02.
Then TGGGGAAGTG, with 0.987 ± 0.025; and GGGGTATGAG, with 0.972 ± 0.029; and GTTTTACACG, with 0.954 ± 0.031.
Consider CGAGCATTTA, for which the switch fluorescence ratio is 1.325 ± 0.012.
Take TGTTATACAT: the switch fluorescence ratio amounted to 1.01 ± 0.024.
As for AACCTCTTAG, the switch fluorescence ratio was found to be 0.992 ± 0.026.

The record behind these values is the supplement of paper PMC10126150.
